This is an account of results in patent publication US20160207996A1 (ARGEN X N V, published 2016).

One assay concerns the target T1, Nt-GCGR-hFc (human, UniProt P47871 26-136).
T1 construct: domain: N-terminal domain; also called Nt-GCGR-Fc; recombinant N-terminal domain of GCGR; not shown: hFc
Briefly: mAb binding ELISA on coated Nt-GCGR-hFc. How it is done:
Binding to GCGR- and CXCR4-lipoparticles (negative control) (A) and binding to Nt-GCGR-hFc (B). Lipoparticles were coated at 10 U/well. Nt-GCGR was coated at 1 μg/ml. mAbs were allowed to bind to the coated target at 1 μg/ml.
(In general: An ELISA detects its analyte on a solid surface through an enzyme-linked reagent.)

Assay [1] has as its target human Nav1.7 (full length) (human) (UniProt Q15858). Description: cell-based or functional assay.
The target in assay [2] is T2, hNav1.7-loopA3-llama Fc fusion (human).
T2 construct: also called hNav1.7-loopA3-llFc; loopA3-llamaFc chimera
T2 chain: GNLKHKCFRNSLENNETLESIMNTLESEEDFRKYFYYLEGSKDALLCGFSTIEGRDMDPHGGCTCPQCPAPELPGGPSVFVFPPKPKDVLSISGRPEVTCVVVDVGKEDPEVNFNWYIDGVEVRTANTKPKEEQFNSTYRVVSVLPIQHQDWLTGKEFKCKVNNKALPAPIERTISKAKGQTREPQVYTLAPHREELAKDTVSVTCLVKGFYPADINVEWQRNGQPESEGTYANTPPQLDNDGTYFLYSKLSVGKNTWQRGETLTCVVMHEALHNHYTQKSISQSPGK
Briefly: ELISA, coated loopA3-llama Fc 10 ng/well, mAb titrated. How it is done:
(§1) In a next experiment, the binding affinity of the loop-specific mAbs was determined and compared to reference mAbs as described in US2011/0135662 (for loop A3: UCB_932, for loopB1-C1-D1: UCB_983, for loopC3: UCB_1066; US2011/0135662). Affinities were determined using an ELISA with a loop-coating of 10 ng/well (loopA3-llama Fc), 20 ng/well (loop-B1-C1-D1-llama Fc) or 50 ng/well (loopC3-llama Fc). The remainder of the experimental setup was identical to abovementioned binding ELISAs. Most of the mAbs show pM affinity for the respective hNav1.7 extracellular loop they are binding. […] The EC₅₀ for the reference mAbs could not be determined (nd) from the ELISA data available because the binding was too weak.

The next assay concerns the target T3, hNav1.5-loopA3-llFc (human).
T3 construct: also called Nav1.5 extracellular loop A3 llamaFc chimera
T3 chain: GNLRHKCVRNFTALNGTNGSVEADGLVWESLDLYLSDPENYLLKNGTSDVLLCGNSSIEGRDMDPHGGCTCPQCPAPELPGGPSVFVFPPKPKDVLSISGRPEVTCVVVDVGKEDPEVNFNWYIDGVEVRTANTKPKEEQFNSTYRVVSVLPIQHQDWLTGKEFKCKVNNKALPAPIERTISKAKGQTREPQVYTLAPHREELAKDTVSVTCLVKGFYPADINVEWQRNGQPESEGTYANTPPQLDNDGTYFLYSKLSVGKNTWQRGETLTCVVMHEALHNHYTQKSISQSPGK
Description: binding ELISA on coated hNav1.5 loop A3-llama Fc, OD620. An excerpt:
(§2) The therapeutic potency of an anti-hNav1.7 antibody will highly depend on the lack of binding to other Nay family members. Of particular interest is hNav1.5, which is expressed on cardiac muscle cells. As such, cross-reactive binding of hNav1.7 antibodies to hNav1.5 could lead to heart failure. To assay the specificity of the mAbs derived from DNA immunization for hNav1.7, the corresponding loopA3 and loopB1-C1-D1 sequences of hNav1.5 were cloned as llamaFc chimera and cross-reactivity was determined using a binding ELISA (FIG. 8). All clones, except clone 9A6 and 9H4, show no cross-reactivity to hNav1.5. In addition, cross reactivity for hNav1.2 was tested for the loopA3-binding clones 8A7 and 8B6 using hNav1.2 and hNav1.7 derived monomeric, GST-tagged loopA3 peptides (Abnova, H00006326-Q01 (hNav1.2) and H00006335-Q01 (hNav1.7)). Again, no cross-reactive binding was observed.

Another assay concerns the target T4, ratA3-llFc (rat).
T4 construct: also called rat Nav1.7 loopA3 llamaFc chimera
T4 chain: T2 chain with N10K, S11E, N14E, L25A, D30E, F31L, R32K
Briefly: binding ELISA on coated rat Nav1.7 loop A3-llama Fc, OD620.

In assay [3] the target is T5, GST-tagged hNav1.2-loopA3 (human, UniProt Q99250 273-362).
T5 construct: bought (Abnova); monomeric; also called hNav1.2 derived monomeric GST-tagged loopA3 peptide; Abnova H00006326-Q01; not shown: GST tag
Briefly: binding ELISA on coated GST-tagged hNav1.2 loop A3 peptide, OD620.
Text: as §2

Assay [4] concerns the target T6, GST-tagged hNav1.7-loopA3 (human, UniProt Q15858 269-339).
T6 construct: monomeric GST-tagged peptide; also called hNav1.7-loopA3-GST; Nav1.7-loopA3-GST; not shown: GST tag
Description: binding ELISA on coated GST-tagged hNav1.7 loop A3 peptide, OD620.
Text: as §2

In assay [5] the target is T7, hNav1.7-loopB1-C1-D1-llama Fc (human).
T7 construct: whole entry: loops B1, C1, D1 joined by linkers, llama Fc; also called hNav1.7-loopB1-C1-D1-llfc
T7 chain: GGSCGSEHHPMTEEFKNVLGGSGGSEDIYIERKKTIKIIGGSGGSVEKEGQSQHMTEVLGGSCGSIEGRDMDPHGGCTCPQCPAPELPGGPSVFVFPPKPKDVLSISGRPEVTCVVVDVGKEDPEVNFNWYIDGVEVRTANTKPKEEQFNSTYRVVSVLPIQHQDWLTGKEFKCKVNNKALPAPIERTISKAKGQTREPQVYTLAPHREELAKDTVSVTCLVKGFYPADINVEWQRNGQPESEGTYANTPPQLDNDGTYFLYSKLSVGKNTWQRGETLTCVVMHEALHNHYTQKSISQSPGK
Briefly: binding ELISA on coated loop-llama Fc chimera (20 ng/well), OD620. How it is done:
(§3) For all DNA-immunization derived mAbs the binding affinity for the various hNav1.7-loop-llama Fc chimeras was tested in a binding ELISA. Therefore, a Maxisorp plate (Nunc) was coated with 20 ng/well of hNav1.7-loopA3-llama Fc, hNav1.7-loopB1-C1-D1-llama Fc or hNav1.7-loopC3-llama Fc. Remainder of the ELISA setup is as described above. […] Only at very high concentration minor cross-reactivity is observed for some clones.

The target in assay [6] is T7, hNav1.7-loopB1-C1-D1-llama Fc. Briefly: ELISA, coated loop-B1-C1-D1-llama Fc 20 ng/well, mAb titrated. How it is done: mAbs originating from the loopA3-llama Fc immunization were assayed for their affinity for hNav1.7-loopA3. Therefore, a Maxisorp plate was coated with 10 ng/well of loopA3-llamaFc chimera and incubated overnight at 4° C. The next day, the plate was blocked with PBS+1% casein for 2 hours at RT. Subsequently a concentration gradient of antibodies was applied (range 0.25 pM-66 nM) for another hour. Antibody binding to loopA3 was detected using a HRP-conjugated anti-human Fc antibody (Abcam, Ab7499) (incubation 1 hour at RT, dilution 1/5000 in PBS+0.1% casein), followed by TMB addition and OD620 nm measurement. EC50 values were determined using GraphPad Prism software. For comparison purposes a known hNav1.7-loopA3 binding monoclonal antibody, UCB_932 (US2011/0135662), was tested.
as §1

The target of assay [7] is T2, hNav1.7-loopA3-llama Fc fusion. Briefly: binding ELISA on coated loop-llama Fc chimera (20 ng/well), OD620. How it is done:
as §3

In the next assay the target is T8, hNav1.7-loopC3-llama Fc (human).
T8 construct: whole entry: loop C3, linker, llama Fc; also called hNav1.7-loopC3-llfc
T8 chain: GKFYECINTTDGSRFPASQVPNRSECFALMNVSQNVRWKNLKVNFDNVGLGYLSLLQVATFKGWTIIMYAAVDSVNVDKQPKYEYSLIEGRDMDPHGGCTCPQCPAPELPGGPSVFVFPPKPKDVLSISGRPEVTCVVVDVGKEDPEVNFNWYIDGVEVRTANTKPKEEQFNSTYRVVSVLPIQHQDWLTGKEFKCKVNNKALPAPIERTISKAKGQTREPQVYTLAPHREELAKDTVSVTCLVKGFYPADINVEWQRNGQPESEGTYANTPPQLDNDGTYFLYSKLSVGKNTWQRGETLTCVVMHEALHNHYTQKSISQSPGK
Described as above. On the procedure: as §3

The target in another assay is T9, RatB1-C1-D1-llFc (rat).
T9 construct: also called rat Nav1.7 loopB1-C1-D1 llamaFc chimera
T9 chain: T7 chain with R32K, S52T, Q53E, H54Y, T56D, E57Y
Description: binding ELISA; the panel prints no target, by paragraph 562 the coated rat loop B1-C1-D1-llama Fc.

Another assay addresses T10, hNav1.5-B1-C1-D1-llFc (human).
T10 construct: also called Nav1.5 extracellular loop B1-C1-D1 llamaFc chimera
T10 chain: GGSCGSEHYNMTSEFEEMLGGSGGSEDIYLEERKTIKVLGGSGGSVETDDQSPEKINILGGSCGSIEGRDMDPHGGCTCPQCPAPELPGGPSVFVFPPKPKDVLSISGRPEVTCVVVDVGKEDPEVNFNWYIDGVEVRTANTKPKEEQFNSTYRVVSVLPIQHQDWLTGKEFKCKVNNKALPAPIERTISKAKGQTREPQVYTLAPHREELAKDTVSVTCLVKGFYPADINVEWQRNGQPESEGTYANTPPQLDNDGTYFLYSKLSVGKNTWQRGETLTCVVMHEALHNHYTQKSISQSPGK
Briefly: binding ELISA; the panel prints no target, by paragraph 288 and paragraph 555 the coated hNav1.5 loop B1-C1-D1-llama Fc.
Text: as §2

Changes are numbered by the printed parent chain.

T1 sequence (P47871 26-136): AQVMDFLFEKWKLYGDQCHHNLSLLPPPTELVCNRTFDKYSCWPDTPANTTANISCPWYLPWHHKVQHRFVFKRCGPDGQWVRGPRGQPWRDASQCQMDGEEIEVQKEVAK
T5 sequence (Q99250 273-362 limits assumed): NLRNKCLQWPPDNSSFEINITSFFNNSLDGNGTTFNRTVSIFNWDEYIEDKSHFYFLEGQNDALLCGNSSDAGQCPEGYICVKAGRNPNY

B1: mAb 6B7 (antibody, IgG1, V domains shown)
VH: QLQLVESGGGLVQPGGSLRLSCAASGFTFSSNAMTWVRQAPGKGLEWVSAISSTGNSITEADSVKGRFTISRDNAKNMLYLQMNSLKPEDTAVYYCAKLGGDTWYMEYWGQGTQVTVSS
VL: SSALTQPSAVSVSLGQTARITCQGDNFGSIDPHWYQQKPGQDPVVVIYQYNNRPSGIPERFSGLKSGNTATLIISGAQAEDEADYYCQLWDSRAKAVFGGGTHLTVLG
B1: the binding result in the assay with Nt-GCGR-hFc is recorded as “no binding (tested: 1 µg/ml)”.

B2: mAb 6D8 (antibody, IgG1, V domains shown)
VH: B1 VH
VL: SYELTQSPSVSVALRQTAKITCGGNGIGSKIVHWYQQKPGQAPVLVIYADVRRPSEIPERFSGSNSGDTATLTVSGAQAEDEADYYCQVWDSSANAAVFGGGTHLTVLG
With B2, the binding result with Nt-GCGR-hFc was “no binding (tested: 1 µg/ml)”.

B3: 8B6 (antibody, human IgG1, V domains shown)
VH: EVQLQESGPGLVKPSQTLSLTCTVSGGSISTSGTGWSWIRQPPGKGLEWMGIIGYDGGTYYNPSLKSRTSISRDTSKNQFSLQLTSVTPEDTAVYYCARGLGPWGQGIQVTVSS
VL: DIQMTQSPSSLSASLGDRVTITCQASQGISKYLAWYQQKPGQAPKLLIYSASRLETGVPSRFSGSGSGTTFTLVISGLEAEDAGSYYCQQYYRAPATFGQGTKVELK
Regarding B3, the % inhibition of inward current following P02 voltage protocol, 10 µg/ml in assay [1] came to 30.2%. For the same molecule, in assay [1], the % inhibition of inward current following P02 voltage protocol, 25 µg/ml came out at 58.4%. The molecule also displayed a % inhibition of inward current following P02 voltage protocol, 100 µg/ml in assay [1] of 72.2%. This molecule showed an EC50 in assay [2] of 370 pM. Besides, the binding result with hNav1.5-loopA3-llFc is “no binding (tested: about 66 ng/ml (axis as labelled))”; in assay [3] it was “no binding (tested: about 130 nM)”; in [5] it was “no binding (tested: about 66 nM)”. In addition, the results for the “EC50 (read off the curve)” value (with ratA3-llFc; in assay [4]) were ~600 pM and ~500 pM, respectively.

B4: 9H4 (antibody, human IgG1, V domains shown)
VH: EVQLVQPGAELRNPGASVKVSCKASGYIFTSAYIDWVRQAPGQGLEWMGRIDPEDGETRYAHQFRDRVTFTADTSTSTVYAELNSLRSEDTAVYYCAITIEGFWGQGTQVTVSS
VL: ATMLTQSPGSLSVVPGESASISCKTSRSLVHSDGKTYLSWLLQKPGQSPQRLIYQVSNRGSGVPDRFTGSGSGTDFTLKISGVKAEDAGVYYCAQATYYPLSFGSGTRVEIK
As to B4, in assay [1], the % inhibition of inward current following P02 voltage protocol, 10 µg/ml is 3.8%. Further, the % inhibition of inward current following P02 voltage protocol, 25 µg/ml in [1] is 19.8%. Further, the % inhibition of inward current following P02 voltage protocol, 100 µg/ml in [1] was 23.9%. The molecule also had an EC50 in [6] of 190 pM. Moreover, the binding result (in assay [7]; with hNav1.7-loopC3-llama Fc; with RatB1-C1-D1-llFc; with hNav1.5-B1-C1-D1-llFc) was “binds” each time.

A word on the EC50: it is the concentration giving half of the maximal effect. Low values mean a more potent agent, high ones a less potent agent. As usually defined, the EC50 (read off the curve) is the concentration giving half of the maximal effect.
